Consider four molecules from patent US20240117061A1 (WUHAN YZY BIOPHARMA, published 2024).

Changes are numbered by the printed parent chain.

For test [1], the target named is T1, recombinant human BCMA-huFc fusion protein (human).
T1 construct: also called huBCMA-huFc
The test can be described thus: indirect ELISA, coated antigen. On the procedure:
Procedures: Human, mouse and monkey BCMA antigens were prepared into 0.5 μg/mL coating solutions with PBS buffer. The coating solutions were added to a microplate at 100 μL/well and incubated at 4° C. overnight. The residual coating solution was discarded before 3% BSA was added at 300 μL/well, and the plate was blocked for 3 h at room temperature. The microplate was washed once with PBST (PBS containing 0.1% of TWEEN 20) at 300 μL/well. The three mouse BCMA antibodies were serially 3-fold diluted from 10 μg/mL to the 7th concentration. The dilutions were added to the microplate at 100 μL/well. After a 1-h incubation at room temperature, the microplate was washed thrice with PBST at 300 μL/well. The HRP goat anti-mouse IgG antibody was 25,000-fold diluted with 1% BSA-PBST and added at 100 μL/well. After another 1-h incubation at room temperature, the microplate was washed thrice with PBST at 300 μL/well and dried. The TMB chromogenic solution was added at 100 μL/well. After a 5-min reaction at room temperature, 2 M H₂SO₄ was added at 100 μL/well to terminate the reaction. The microplate was placed on a microplate reader (Molecular Devices, SPECTRA Max plus 384) and the absorbance OD450 value was read at 450 nm wavelength.

Test [2] deals with T2, human BCMA on cells (NCI-H929, U266B1, HEK293 huBCMA) (human, UniProt Q02223 1-184).
T2 construct: whole, on cells; also called cell surface BCMA antigen
T2 sequence (looked up): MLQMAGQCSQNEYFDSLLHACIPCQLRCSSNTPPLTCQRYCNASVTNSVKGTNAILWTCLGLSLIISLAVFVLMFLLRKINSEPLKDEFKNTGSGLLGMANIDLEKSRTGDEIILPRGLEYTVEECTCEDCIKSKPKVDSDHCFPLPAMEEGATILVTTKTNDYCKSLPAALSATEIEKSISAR
The test can be described thus: flow cytometry on U266B1 cells. How it is done:
(§1) The affinities of the 3 mouse antibodies for cell surface BCMA antigen were assessed using FACS. Materials: cell lines NCI-H929, U266B1, HEK293 cynoBCMA and HEK293; PBS buffer; FBS (fetal bovine serum; Gibco, 10099141); PE goat anti-mouse IgG Fc (Biolegend, 405307). Procedures: The cells were resuspended in PBS to prepare cell suspensions containing 200,000 cells. Mouse BCMA antibodies were added to a 96-well plate at 50 μL/well and serially 3-fold diluted from 3000 nM. The plate was incubated for 1 h at 4° C. 150 μL of precooled PBS containing 1% of FBS was added into the 96-well plate after the co-incubation with the primary antibody was finished. The mixtures were centrifuged at 300×g for 5 min and the supernatants were discarded. The above procedures were repeated once. The fluorescent secondary antibody PE goat anti-mouse IgG Fc was added at 80 μL/well. The plate was incubated at 4° C. for 30 min. 150 μL of precooled PBS containing 1% of FBS was added into the 96-well plate after the co-incubation with the secondary antibody was finished. The mixtures were uniformly mixed with a pipette. The 96-well plate was centrifuged at 300×g for 5 min in a plate centrifuge and the supernatants were discarded. The above procedures were repeated once. The cells were resuspended in 100 μL of PBS containing 1% of FBS and detected on a flow cytometry (BD Accuri™ C6).

For test [3], the target named is T2, human BCMA on cells (NCI-H929, U266B1, …). Description: flow cytometry on NCI-H929 cells. How it is done:
as §1

Test [4] concerns the target T3, recombinant human BCMA-his fusion protein (ACRO Biosystem, Cat. No. BCA-H522y) (human, UniProt Q02223 1-54).
T3 construct: extracellular domain; Bought protein; also called huBCMA-his; hu BCMA-his; not shown: His tag
T3 sequence (looked up): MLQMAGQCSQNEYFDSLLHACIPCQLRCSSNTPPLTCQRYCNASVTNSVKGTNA
Description: competitive ELISA, coated huBCMA-his, competitor APRIL-biotin. On the procedure: The 96-well microplate was treated with 100 μL of 0.5 μg/mL huBCMA-his in PBS and incubated overnight at 4° C. The plate was then washed thrice with PBS washing buffer containing 0.1% of Tween-20 and blocked with 300 μL of PBS containing 1% of BSA for 2 h. 100 μL of each BCMA antibody was added to the plate. […] The plate was incubated at 37° C. for 1 h, and unbound secondary antibody was washed with PBS washing buffer containing 0.1% of Tween-20. The TMB chromogenic solution was added at 100 μL/well. After a 5-min reaction at room temperature, 2 M H₂SO₄ was added at 100 μL/well to terminate the reaction. The microplate was placed on a microplate reader (Molecular Devices, SPECTRA Max plus 384) and the absorbance OD450 value was read at 450 nm wavelength.

The target in test [5] is T3, recombinant human BCMA-his fusion …. The test is described as above. The source holds these as a separate data set.
The target is the same in test [6]. The test can be described thus: ELISA, coated antigen. On the procedure:
Procedures: huBCMA-his and cynoBCMA-his antigens were prepared into 0.5 μg/mL coating solutions with PBS (pH 7.4). The coating solutions were added to a microplate at 100 μL/well and incubated at 4° C. overnight. The residual coating solution was discarded before 3% BSA was added at 300 μL/well, and the plate was blocked for 3 h at room temperature. The microplate was washed once with PB ST at 300 The stock humanized monoclonal antibody solutions were serially 3-fold diluted to the 11th concentration. The dilutions were added to the microplate at 100 μL/well. After a 1-h incubation at room temperature, the microplate was washed thrice with PBST at 300 The HRP-conjugated 6*His, His-Tag antibody was 25,000-fold diluted with 1% BSA-PBST and added at 100 After another 1-h incubation at room temperature, the microplate was washed thrice with PB ST at 300 μL/well and dried. The TMB chromogenic solution was added at 100 μL. After a 5-min reaction at room temperature, 2 M H2504 was added at 100 μL/well to terminate the reaction. The microplate was placed on a microplate reader (Molecular Devices, SPECTRA Max plus 384) and the absorbance OD450 value was read at 450 nm wavelength.

Test [7] concerns the target T2, human BCMA on cells (NCI-H929, U266B1, …). Description: flow cytometry on NCI-H929 cells. How it is done: Procedures: Preparation of cell suspensions: The cells were resuspended in PBS, and the cell density was adjusted to 2×10⁵ cells/well. Mouse antibodies were added to a 96-well plate at […] and serially 3-fold diluted from 3000 nM. The plate was incubated for 1 h at 4° C. 150 μL of precooled PBS containing 1% of FBS was added into the 96-well plate after the co-incubation with the primary antibody was finished. The mixtures were centrifuged at 300×g for 5 min and the supernatants were discarded. The above procedures were repeated once. The fluorescent secondary antibody PE […] (Biolegend, 409304) was added at 80 μL/well. The plate was incubated at 4° C. for 30 min. 150 μL of precooled PBS containing 1% of FBS was added into the 96-well plate after the co-incubation with the secondary antibody was finished. The mixtures were uniformly mixed with a pipette. The 96-well plate was centrifuged at 300×g for 5 min in a plate centrifuge and the supernatants were removed. The above procedures were repeated once. The cells were resuspended in 100 μL of PBS containing 1% of FBS and detected on a flow cytometry (BD Accuri™ C6).
The source holds these as a separate data set.

Test [8] addresses T3, recombinant human BCMA-his fusion …. The test can be described thus: SPR (Biacore T200), anti-His capture on CM5, 1:1 fit. How it is done:
In this example, the antigen-antibody binding kinetics and affinity were determined by the BIACORE method.
Procedures: The anti-histidine antibody (GE, His capture Kit, Cat. No. 28995056) was conjugated to the Sereis S Sensor Chip CMS to capture the test articles, thus acquiring the binding kinetic and affinity data of the antigen, as an analyte, to the test articles. The initial concentration for detecting the binding of the antigen and the test articles was 10 nM. […] The Start up flushing process (1×HBS-EP+buffer) was performed at least thrice before loading to equilibrate the system. The association and dissociation tendencies between the antigen and the test articles were detected. When the dissociation was completed, a regeneration reagent was loaded for regeneration before the detection of the next concentration was performed. After the detection was finished, the data were fitted by using a 1:1 Binding fitting mode in data analysis software (Biacore T200 Evaluation Software).

Test [9] shares this target. The test can be described thus: competitive ELISA, coated huBCMA-his, competitor 83A10-biotin.
Test [10] shares this target. Description: competitive ELISA, coated huBCMA-his, competitor 83A10-biotin, antibody at 7 µg/mL.

B1: mouse monoclonal antibody 18F6G3H9 (antibody, V domains shown)
VH: EVQLQQSGPELVKPGTSVEMSCKASGYTFTDYNIHWVRQRHGESLEWLGYINPNNGVTNFNQKFKGKATLTVNKSSSTAYMELRSLTSDDSAVYYCSSGLFDGYPFPYWGQGTLVTVSA
VL: DIVLTQSPASLVVSLGQRATISCRASKSVSTSGYNYIHWYQQKPGQPPKLLIFLASNLKSGVPARFSGGGSGTDFTLNIHPVEEDDAATYFCQHNRELPYTFGGGTKVEIK
notes: detected with anti-mouse IgG; also called Clone 18F6G3H9; BCMA-HC1/BCMA-LC1
Consider B1, for which the EC50 in [1] turned out to be 0.0705 nM; in [2], 1.6 nM; in [3], 3.1 nM.

B2: soluble human APRIL (ACRO, Cat. No. APL-H5244) (ligand, UniProt O75888 115-250, looked up)
chain: HSVLHLVPINATSKDDSDVTEVMWQPALRRGRGLQAQGYGVRIQDAGVYLLYSQVLFQDVTFTMGQVVSREGQGRQETLFRCIRSMPSHPDRAYNSCYSAGVFHLHQGDILSVIIPRARAKLNLSPHGTFLGFVKL
notes: also called APRIL ligand; APRIL-biotin
Turning to B2, the IC50 in [4] came to 0.0247 µg/mL; in [5], 3.7 µg/mL.

B3: humanized antibody hu-mAb2 (VH2+VL2) (antibody, V domains shown)
VH: QVQLVQSGAEVKKPGSSVKVSCKVSGYTFTDHTIHWMKQAPGQGLEWIGYIYPRNGNTKYNEKFKGKATLTADKSTSTAYMELSSLRSEDTAVYFCARYDYDGYFDVWGQGTLVTVSS
VL: DVVMTQTPLSLSVTPGQPASISCRSSQSHVHSDGHTYLHWYLQKPGQSPELLIYKVSNRFSGVPDRFSGSGSGTDFTLKISRVEAEDVGVYFCSQNTHFPWTFGGGTKVEIK
notes: human IgG1/kappa named only as preferred
In the case of B3, in [6], the EC50 is 0.00271 nM. In test [7], it took 0.83 nM to reach a half-maximal effect (EC50). In test [8], the Kd turned out to be 1.15 nM, the off-rate (koff) turned out to be 0.0258 s⁻¹ and the on-rate constant (kon) worked out at 2.24e+07 M⁻¹ s⁻¹. Also, the concentration for half-maximal inhibition (IC50) in [5] was 2.76 µg/mL. Also, the IC50 in test [9] came out at 8.35 µg/mL. In addition, in test [10], the competition turned out to be 30%.

B4: mouse monoclonal antibody 202E11H10E3 (antibody, V domains shown)
VH: QVQLQQSDAELVKPGTSVKISCKVSGYTFTDHTIHWMKQRPEQGLEWIGYIYPRNGNTKYNEKFKGKATLTADKSSSTAYMHLNSLTSEDSAVYFCARYDYDGYFDVWGTGTTVTVSS
VL: B3 VL with S12P, T14S, P15L, Q17D, P18Q, V88L, V109L
notes: detected with anti-mouse IgG; also called Clone 202E11H10E3; BCMA-HC2/BCMA-LC2
Turning to B4, the EC50 in [1] turned out to be 0.0764 nM; in [2], 1 nM; in test [3], 1.1 nM.
